Experimental data as given in paper PMC6104945 (2018).

B1: NHBA_(312-427) (Neisserial heparin binding antigen, peptide 20, residues M312-D427) [Neisseria meningitidis (strain 2996)] / Fab 5H2 (Fab derived from the vaccine-elicited human monoclonal antibody 5H2) [human] (parent complex)
chain 1: MLAGTAVYNGEVLHFHTENGRPYPTRGRFAAKVDFGSKSVDGIIDSGDDLHMGTQKFKAAIDGNGFKGTWTENGGGDVSGRFYGPAGEEVAGKYSYRPTDAEKGGFGVFAGKKEQD
chain 2: not shown
chain 3: EIVMTQTPSSLSASVGDRVTITCRASQSISNYLNWYQQKPGTAPKLLTYAASSLGSGVPSRFSGSGSGTDLTLTISSLRPEDFATYYCQQSYGSPTFGQGTKLEIRRTVAAPSVFIFPPSDEQLKSGTASVVCLLNNFYPREAKVQWKVDNALQSGNSQESVTEQDSKDSTYSLSSTLTLSKADYEKHKVYACEVTHQGLSSPVTKSFNRGEC

Variants of: B1
Test: SPR; Fab 5H2 captured on sensor chip, NHBA312-427 mutant injected; response read at end of injection (~48 s); read off a plot

First: chain 1 R28A
Second: chain 1 R28G
The response of the first is lower: ~2 RU for the first, ~30 RU for the second.

Going from chain 1 D49A, chain 1 T54A to chain 1 R28G, chain 1 K56A, the response falls from ~42 RU to ~5 RU.

Compared with chain 1 K56A, chain 1 E11A, chain 1 E114A is lower in response: ~58 RU for the first, ~51 RU for the second.

chain 1 R28A, chain 1 K56A showed a response of ~3 RU.
